± gives the uncertainty stated by the source.
B1: Transcription factor SOX-4, residues 60 to 127; numbered along this chain, Q06945 (parent)
chain: KRPMNAFMVWSQIERRKIMEQSPDMHNAEISKRLGKRWKLLKDSDKIPFIREAERLRLKHMADYPDYK

Variants of: B1
Test: abundance fitness (aPCA) (normalised: wild type 0, dead -1); higher = more abundant; growth selection in yeast, the domain comes from the species named
Conditions: Homo sapiens

Variant	abundance fitness
E20R	-0.364 ± 0.083
E20S	-0.497 ± 0.12
E20T	-0.296 ± 0.073
E20W	-0.626 ± 0.1
E20Y	-0.88 ± 0.33
Q21A	-0.169 ± 0.065
Q21C	-0.581 ± 0.17
Q21D	-0.346 ± 0.1
Q21E	-0.062 ± 0.12
Q21F	-0.426 ± 0.14
Q21H	-0.282 ± 0.11
Q21I	-0.128 ± 0.088
Q21K	-0.204 ± 0.088
Q21L	-0.349 ± 0.062
Q21M	-0.244 ± 0.1
Q21N	-0.382 ± 0.12
Q21P	-0.874 ± 0.15
Q21R	-0.267 ± 0.066
Q21S	-0.163 ± 0.064
Q21T	-0.085 ± 0.075
Q21V	-0.2 ± 0.061

Variant	abundance fitness
Q21W	-0.884 ± 0.17
Q21Y	-0.63 ± 0.26
S22A	-0.074 ± 0.082
S22D	-0.034 ± 0.05
S22E	-0.027 ± 0.052
S22F	0.106 ± 0.05
S22G	-0.4 ± 0.041
S22H	-0.01 ± 0.061
S22K	-0.191 ± 0.049
S22L	-0.458 ± 0.057
S22M	-0.276 ± 0.055
S22P	-0.745 ± 0.18
S22R	-0.211 ± 0.038
S22T	-0.326 ± 0.094
S22V	-0.272 ± 0.042
S22W	0.016 ± 0.053
S22Y	0.066 ± 0.054
P23A	-0.619 ± 0.074
P23D	-0.564 ± 0.059
P23E	-0.554 ± 0.065
P23F	-0.97 ± 0.12

Variant	abundance fitness
P23H	-0.548 ± 0.083
P23I	-0.568 ± 0.074
P23L	-0.52 ± 0.055
P23M	-0.817 ± 0.077
P23N	-0.554 ± 0.057
P23Q	-0.482 ± 0.09
P23R	-0.669 ± 0.048
P23S	-0.47 ± 0.047
P23T	-0.593 ± 0.07
P23V	-0.634 ± 0.06
P23W	-0.766 ± 0.088
P23Y	-0.862 ± 0.091
D24A	-0.239 ± 0.06
D24C	-0.335 ± 0.061
D24E	-0.052 ± 0.051
D24F	-0.134 ± 0.043
D24G	-0.123 ± 0.042
D24I	-0.632 ± 0.1
D24K	-0.141 ± 0.064
D24L	-0.251 ± 0.039
D24M	-0.214 ± 0.057

Variant	abundance fitness
D24N	-0.123 ± 0.063
D24P	-0.564 ± 0.11
D24Q	-0.114 ± 0.063
D24R	-0.307 ± 0.044
D24S	-0.15 ± 0.04
D24T	-0.206 ± 0.068
D24W	-0.188 ± 0.063
M25A	-0.019 ± 0.058
M25C	-0.258 ± 0.1
M25D	-0.397 ± 0.091
M25E	-0.323 ± 0.093
M25F	-0.614 ± 0.29
M25G	-0.713 ± 0.092
M25I	0.004 ± 0.4
M25K	-0.216 ± 0.082
M25Q	-0.595 ± 0.15
M25R	-0.591 ± 0.068
M25S	-0.416 ± 0.086
M25T	-0.189 ± 0.078
M25V	-0.125 ± 0.065

Reference: the Human Domainome abundance scans (Beltran et al. 2025)
